# Experimental data: patent publication US20230365662A1
# Where “and” joins values, the source holds several entries; their conditions need not be identical. Equal values may be shown once.
# Target: HRgpA-6H (Porphyromonas gingivalis) (UniProt P28784)
# Experiment: ELISA on coated HRgpA-6H
# Sequence of UniProt P28784 (P28784 228-991 limits assumed): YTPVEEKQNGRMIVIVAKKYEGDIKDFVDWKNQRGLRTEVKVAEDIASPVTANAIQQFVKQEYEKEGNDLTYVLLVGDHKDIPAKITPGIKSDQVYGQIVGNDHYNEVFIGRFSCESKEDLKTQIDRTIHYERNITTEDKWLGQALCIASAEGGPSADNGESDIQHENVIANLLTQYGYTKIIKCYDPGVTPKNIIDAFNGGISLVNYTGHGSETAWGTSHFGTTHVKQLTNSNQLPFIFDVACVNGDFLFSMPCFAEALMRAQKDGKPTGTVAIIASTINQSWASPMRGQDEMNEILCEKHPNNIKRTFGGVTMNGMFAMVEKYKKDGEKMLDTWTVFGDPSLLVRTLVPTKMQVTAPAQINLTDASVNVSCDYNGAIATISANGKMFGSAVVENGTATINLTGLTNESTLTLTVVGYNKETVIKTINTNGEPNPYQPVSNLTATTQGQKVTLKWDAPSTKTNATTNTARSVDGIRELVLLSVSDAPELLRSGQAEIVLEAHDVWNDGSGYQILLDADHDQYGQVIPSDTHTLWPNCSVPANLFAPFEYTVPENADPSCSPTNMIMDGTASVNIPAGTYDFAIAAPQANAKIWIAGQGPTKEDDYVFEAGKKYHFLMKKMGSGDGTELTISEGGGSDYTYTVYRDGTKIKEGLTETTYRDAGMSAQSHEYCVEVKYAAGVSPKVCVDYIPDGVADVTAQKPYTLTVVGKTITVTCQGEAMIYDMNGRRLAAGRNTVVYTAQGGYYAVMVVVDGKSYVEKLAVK
Binder,OD450nm,Ratio OD(Variant)/OD(WT)
"KB001 mouse Fab FASEBA VH I31T (Fab, V domains shown) VH: EVQLKQSGPGLVAPSQSLSITCTVSGFSLSTYSVHWVRQPPGKGLEWLGMIWGGGSSDYNSALKSRLSISKDNSKSQVFLKMNSLQTDDTAMYYCARNGNFYAMDYWGQGTSVTVSS VL: QIVLTQSPAIMSASLGERVTMTCTASSSVSSSFLHWYQQKPGSSPQLWIYSTSNLASGVPARFSGSGSGTSYSLTISSMEAEDAATYYCHQYHHSPYIYTFGGGTKLEIK",0.56 and 0.534,1.11 and 1.06
"KB001 mouse Fab FASEBA VH G99S (Fab, V domains shown) VH: EVQLKQSGPGLVAPSQSLSITCTVSGFSLSIYSVHWVRQPPGKGLEWLGMIWGGGSSDYNSALKSRLSISKDNSKSQVFLKMNSLQTDDTAMYYCARNSNFYAMDYWGQGTSVTVSS VL: QIVLTQSPAIMSASLGERVTMTCTASSSVSSSFLHWYQQKPGSSPQLWIYSTSNLASGVPARFSGSGSGTSYSLTISSMEAEDAATYYCHQYHHSPYIYTFGGGTKLEIK",0.809,1.01
"KB001 mouse Fab FASEBA VH I31M (Fab, V domains shown) VH: EVQLKQSGPGLVAPSQSLSITCTVSGFSLSMYSVHWVRQPPGKGLEWLGMIWGGGSSDYNSALKSRLSISKDNSKSQVFLKMNSLQTDDTAMYYCARNGNFYAMDYWGQGTSVTVSS VL: QIVLTQSPAIMSASLGERVTMTCTASSSVSSSFLHWYQQKPGSSPQLWIYSTSNLASGVPARFSGSGSGTSYSLTISSMEAEDAATYYCHQYHHSPYIYTFGGGTKLEIK",0.522,1.03
"KB001 mouse Fab FASEBA VH S65D (Fab, V domains shown) VH: EVQLKQSGPGLVAPSQSLSITCTVSGFSLSIYSVHWVRQPPGKGLEWLGMIWGGGSSDYNSALKDRLSISKDNSKSQVFLKMNSLQTDDTAMYYCARNGNFYAMDYWGQGTSVTVSS VL: QIVLTQSPAIMSASLGERVTMTCTASSSVSSSFLHWYQQKPGSSPQLWIYSTSNLASGVPARFSGSGSGTSYSLTISSMEAEDAATYYCHQYHHSPYIYTFGGGTKLEIK",0.866 and 0.897,1.05 and 1.08
"KB001 mouse Fab FASEBA VH G99Y (Fab, V domains shown) VH: EVQLKQSGPGLVAPSQSLSITCTVSGFSLSIYSVHWVRQPPGKGLEWLGMIWGGGSSDYNSALKSRLSISKDNSKSQVFLKMNSLQTDDTAMYYCARNYNFYAMDYWGQGTSVTVSS VL: QIVLTQSPAIMSASLGERVTMTCTASSSVSSSFLHWYQQKPGSSPQLWIYSTSNLASGVPARFSGSGSGTSYSLTISSMEAEDAATYYCHQYHHSPYIYTFGGGTKLEIK",0.835,1.05
"KB001 mouse Fab FASEBA VH S65T (Fab, V domains shown) VH: EVQLKQSGPGLVAPSQSLSITCTVSGFSLSIYSVHWVRQPPGKGLEWLGMIWGGGSSDYNSALKTRLSISKDNSKSQVFLKMNSLQTDDTAMYYCARNGNFYAMDYWGQGTSVTVSS VL: QIVLTQSPAIMSASLGERVTMTCTASSSVSSSFLHWYQQKPGSSPQLWIYSTSNLASGVPARFSGSGSGTSYSLTISSMEAEDAATYYCHQYHHSPYIYTFGGGTKLEIK",0.883,1.07
"KB001 mouse Fab FASEBA VH V34I (Fab, V domains shown) VH: EVQLKQSGPGLVAPSQSLSITCTVSGFSLSIYSIHWVRQPPGKGLEWLGMIWGGGSSDYNSALKSRLSISKDNSKSQVFLKMNSLQTDDTAMYYCARNGNFYAMDYWGQGTSVTVSS VL: QIVLTQSPAIMSASLGERVTMTCTASSSVSSSFLHWYQQKPGSSPQLWIYSTSNLASGVPARFSGSGSGTSYSLTISSMEAEDAATYYCHQYHHSPYIYTFGGGTKLEIK",0.891 and 0.868 and 0.866,1.08 and 1.05 (2×)
"KB001 mouse Fab FASEBA VH S56A (Fab, V domains shown) VH: EVQLKQSGPGLVAPSQSLSITCTVSGFSLSIYSVHWVRQPPGKGLEWLGMIWGGGASDYNSALKSRLSISKDNSKSQVFLKMNSLQTDDTAMYYCARNGNFYAMDYWGQGTSVTVSS VL: QIVLTQSPAIMSASLGERVTMTCTASSSVSSSFLHWYQQKPGSSPQLWIYSTSNLASGVPARFSGSGSGTSYSLTISSMEAEDAATYYCHQYHHSPYIYTFGGGTKLEIK",0.891 and 0.86 and 0.82,1.01 and 0.978 and 0.932
"KB001 mouse Fab FASEBA VH S61T (Fab, V domains shown) VH: EVQLKQSGPGLVAPSQSLSITCTVSGFSLSIYSVHWVRQPPGKGLEWLGMIWGGGSSDYNTALKSRLSISKDNSKSQVFLKMNSLQTDDTAMYYCARNGNFYAMDYWGQGTSVTVSS VL: QIVLTQSPAIMSASLGERVTMTCTASSSVSSSFLHWYQQKPGSSPQLWIYSTSNLASGVPARFSGSGSGTSYSLTISSMEAEDAATYYCHQYHHSPYIYTFGGGTKLEIK",0.543 and 0.447,1.1 and 0.906
"KB001 mouse Fab FASEBA VH Y106L (Fab, V domains shown) VH: EVQLKQSGPGLVAPSQSLSITCTVSGFSLSIYSVHWVRQPPGKGLEWLGMIWGGGSSDYNSALKSRLSISKDNSKSQVFLKMNSLQTDDTAMYYCARNGNFYAMDLWGQGTSVTVSS VL: QIVLTQSPAIMSASLGERVTMTCTASSSVSSSFLHWYQQKPGSSPQLWIYSTSNLASGVPARFSGSGSGTSYSLTISSMEAEDAATYYCHQYHHSPYIYTFGGGTKLEIK",0.791,1.03
"KB001 mouse Fab FASEBA VH Y59V (Fab, V domains shown) VH: EVQLKQSGPGLVAPSQSLSITCTVSGFSLSIYSVHWVRQPPGKGLEWLGMIWGGGSSDVNSALKSRLSISKDNSKSQVFLKMNSLQTDDTAMYYCARNGNFYAMDYWGQGTSVTVSS VL: QIVLTQSPAIMSASLGERVTMTCTASSSVSSSFLHWYQQKPGSSPQLWIYSTSNLASGVPARFSGSGSGTSYSLTISSMEAEDAATYYCHQYHHSPYIYTFGGGTKLEIK",0.83 and 0.79,1.05 and 0.999
"KB001 mouse Fab FASEBA VH S61N (Fab, V domains shown) VH: EVQLKQSGPGLVAPSQSLSITCTVSGFSLSIYSVHWVRQPPGKGLEWLGMIWGGGSSDYNNALKSRLSISKDNSKSQVFLKMNSLQTDDTAMYYCARNGNFYAMDYWGQGTSVTVSS VL: QIVLTQSPAIMSASLGERVTMTCTASSSVSSSFLHWYQQKPGSSPQLWIYSTSNLASGVPARFSGSGSGTSYSLTISSMEAEDAATYYCHQYHHSPYIYTFGGGTKLEIK",0.537,1.09
"KB001 mouse Fab FASEBA VH I31V (Fab, V domains shown) VH: EVQLKQSGPGLVAPSQSLSITCTVSGFSLSVYSVHWVRQPPGKGLEWLGMIWGGGSSDYNSALKSRLSISKDNSKSQVFLKMNSLQTDDTAMYYCARNGNFYAMDYWGQGTSVTVSS VL: QIVLTQSPAIMSASLGERVTMTCTASSSVSSSFLHWYQQKPGSSPQLWIYSTSNLASGVPARFSGSGSGTSYSLTISSMEAEDAATYYCHQYHHSPYIYTFGGGTKLEIK",0.537 and 0.521,1.06 and 1.03
"KB001 mouse Fab FASEBA VH S57Q (Fab, V domains shown) VH: EVQLKQSGPGLVAPSQSLSITCTVSGFSLSIYSVHWVRQPPGKGLEWLGMIWGGGSQDYNSALKSRLSISKDNSKSQVFLKMNSLQTDDTAMYYCARNGNFYAMDYWGQGTSVTVSS VL: QIVLTQSPAIMSASLGERVTMTCTASSSVSSSFLHWYQQKPGSSPQLWIYSTSNLASGVPARFSGSGSGTSYSLTISSMEAEDAATYYCHQYHHSPYIYTFGGGTKLEIK",0.915 and 0.863 and 0.836,1.04 and 0.981 and 0.951
"KB001 mouse Fab FASEBA VH K64A (Fab, V domains shown) VH: EVQLKQSGPGLVAPSQSLSITCTVSGFSLSIYSVHWVRQPPGKGLEWLGMIWGGGSSDYNSALASRLSISKDNSKSQVFLKMNSLQTDDTAMYYCARNGNFYAMDYWGQGTSVTVSS VL: QIVLTQSPAIMSASLGERVTMTCTASSSVSSSFLHWYQQKPGSSPQLWIYSTSNLASGVPARFSGSGSGTSYSLTISSMEAEDAATYYCHQYHHSPYIYTFGGGTKLEIK",0.89,1.08
"KB001 mouse Fab FASEBA VH K64R (Fab, V domains shown) VH: EVQLKQSGPGLVAPSQSLSITCTVSGFSLSIYSVHWVRQPPGKGLEWLGMIWGGGSSDYNSALRSRLSISKDNSKSQVFLKMNSLQTDDTAMYYCARNGNFYAMDYWGQGTSVTVSS VL: QIVLTQSPAIMSASLGERVTMTCTASSSVSSSFLHWYQQKPGSSPQLWIYSTSNLASGVPARFSGSGSGTSYSLTISSMEAEDAATYYCHQYHHSPYIYTFGGGTKLEIK",0.87,1.05
"KB001 mouse Fab FASEBA VH S65V (Fab, V domains shown) VH: EVQLKQSGPGLVAPSQSLSITCTVSGFSLSIYSVHWVRQPPGKGLEWLGMIWGGGSSDYNSALKVRLSISKDNSKSQVFLKMNSLQTDDTAMYYCARNGNFYAMDYWGQGTSVTVSS VL: QIVLTQSPAIMSASLGERVTMTCTASSSVSSSFLHWYQQKPGSSPQLWIYSTSNLASGVPARFSGSGSGTSYSLTISSMEAEDAATYYCHQYHHSPYIYTFGGGTKLEIK",0.867,1.05
"KB001 mouse Fab FASEBA VH S57A (Fab, V domains shown) VH: EVQLKQSGPGLVAPSQSLSITCTVSGFSLSIYSVHWVRQPPGKGLEWLGMIWGGGSADYNSALKSRLSISKDNSKSQVFLKMNSLQTDDTAMYYCARNGNFYAMDYWGQGTSVTVSS VL: QIVLTQSPAIMSASLGERVTMTCTASSSVSSSFLHWYQQKPGSSPQLWIYSTSNLASGVPARFSGSGSGTSYSLTISSMEAEDAATYYCHQYHHSPYIYTFGGGTKLEIK",0.922,1.05
"KB001 mouse Fab FASEBA VH N100E (Fab, V domains shown) VH: EVQLKQSGPGLVAPSQSLSITCTVSGFSLSIYSVHWVRQPPGKGLEWLGMIWGGGSSDYNSALKSRLSISKDNSKSQVFLKMNSLQTDDTAMYYCARNGEFYAMDYWGQGTSVTVSS VL: QIVLTQSPAIMSASLGERVTMTCTASSSVSSSFLHWYQQKPGSSPQLWIYSTSNLASGVPARFSGSGSGTSYSLTISSMEAEDAATYYCHQYHHSPYIYTFGGGTKLEIK",0.886,1.05
"KB001 mouse Fab FASEBA VH A103S (Fab, V domains shown) VH: EVQLKQSGPGLVAPSQSLSITCTVSGFSLSIYSVHWVRQPPGKGLEWLGMIWGGGSSDYNSALKSRLSISKDNSKSQVFLKMNSLQTDDTAMYYCARNGNFYSMDYWGQGTSVTVSS VL: QIVLTQSPAIMSASLGERVTMTCTASSSVSSSFLHWYQQKPGSSPQLWIYSTSNLASGVPARFSGSGSGTSYSLTISSMEAEDAATYYCHQYHHSPYIYTFGGGTKLEIK",0.909,1.05
"KB001 mouse Fab FASEBA VH S57V (Fab, V domains shown) VH: EVQLKQSGPGLVAPSQSLSITCTVSGFSLSIYSVHWVRQPPGKGLEWLGMIWGGGSVDYNSALKSRLSISKDNSKSQVFLKMNSLQTDDTAMYYCARNGNFYAMDYWGQGTSVTVSS VL: QIVLTQSPAIMSASLGERVTMTCTASSSVSSSFLHWYQQKPGSSPQLWIYSTSNLASGVPARFSGSGSGTSYSLTISSMEAEDAATYYCHQYHHSPYIYTFGGGTKLEIK",0.911 and 0.869,1.04 and 0.988
